Experimental data reported in the supplement of paper PMC7877785.
± gives the uncertainty stated by the source.

Test: self-splicing fitness, log relative to wild type (ln ratio); higher = more splicing; Tetrahymena group I intron in knt gene, E. coli kanamycin selection, DiMSum; sequences stand for … in CUCUCU…GGAGGGAAAAGUUAUCAGGCAUGCACCUGGUAGCUAGUCUUUAAACCAAUAGAUUGCAUCGGUUUAAAAGGCAAGACCGUCAAAUUGCGGGAAAGGGGUCAACAGCCGUUCAGUACCAAGUCUCAGGGGAAACUUUGAGAUGGCCUUGCAAAGGGUAUGGUAAUAAGCUGACGGACAUGGUCCUAACCACGCAGCCAAGUCCUAAGUCAACAGAUCUUCUGUUGAUAUGGAUGCAGUUCACAGACUAAAUGUCGGUCGGGGAAGAUGUAUUCUUCUCAUAAGAUAUAGUCGGACCUCUCCUUAAUGGGAGCUAGCGGAUGAAGUGAUGCAACACUGGAGCCGCUGGGAACUAAUUUGUAUGCGAAAGUAUAUUGAUUAGUUUUGGAGUACUCGUGGUCG
In short: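 Colonies from six replicate transformations of E. coli BL21(DE3) were pooled and amplicon-sequenced on an Illumina HiSeq 2500. The library placed an intron with all eight P1ex-region nucleotides randomised inside the knt kanamycin-resistance gene on pET-22b(+), and cells grew overnight at 37°C or 30°C on LB agar with or without 25 μg/mL kanamycin (plus 100 μg/mL carbenicillin, 50 μM IPTG, 0.2% rhamnose). Fitness is the DiMSum error-weighted combination of wild-type-normalised replicate fold changes, kanamycin versus none.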

Sequence	self-splicing fitness (ln) (30 °C)	self-splicing fitness (ln) (37 °C)
CGUUAGCAAUAUUACGUUUC	-3.28 ± 0.2	-2.19 ± 0.21
CGUUAGCAAUAUUACGUUUG	-1.01 ± 0.08	-0.558 ± 0.1
CGUUAGCAAUAUUACGUUUU	-4.77 ± 0.27	-2.99 ± 0.17
CUAAAGCAAUAUUACGAACA	-2.48 ± 0.12	-2.03 ± 0.2
CUAAAGCAAUAUUACGACAC		-1.88 ± 0.47
CUAAAGCAAUAUUACGACGU	-3.33 ± 0.28	-0.435 ± 0.19
CUAAAGCAAUAUUACGAGAC	-3.33 ± 0.18	-0.499 ± 0.16
CUAAAGCAAUAUUACGAUCU	-4.75 ± 0.23	-2.5 ± 0.18
CUAAAGCAAUAUUACGCAAG	-1.11 ± 0.089	-0.574 ± 0.12
CUAAAGCAAUAUUACGCACA	-2.11 ± 0.16	-2.11 ± 0.27
CUAAAGCAAUAUUACGCACG	-0.0346 ± 0.092	0.511 ± 0.14
CUAAAGCAAUAUUACGCAGA	-3.64 ± 0.2	-3.29 ± 0.42
CUAAAGCAAUAUUACGCAGC	-3.5 ± 0.33	-2.3 ± 0.44
CUAAAGCAAUAUUACGCCCC	-1.15 ± 0.45	
CUAAAGCAAUAUUACGCCGC	-2.9 ± 0.22	
CUAAAGCAAUAUUACGCGUC	-3.94 ± 0.31	-2.17 ± 0.25
CUAAAGCAAUAUUACGGAAC	-2.36 ± 0.19	-1.42 ± 0.17
CUAAAGCAAUAUUACGGCAG	-0.0254 ± 0.076	-0.422 ± 0.098
CUAAAGCAAUAUUACGGUGU	-4.65 ± 0.25	-3.05 ± 0.21
CUAAAGCAAUAUUACGUGAA	-3.29 ± 0.23	-3.36 ± 0.32

Sequence	self-splicing fitness (ln) (30 °C)	self-splicing fitness (ln) (37 °C)
CUAAAGCAAUAUUACGUUAC	-3.78 ± 0.26	-2.06 ± 0.31
CUAAAGCAAUAUUACGUUUU	-4.6 ± 0.26	-2.58 ± 0.21
CUACAGCAAUAUUACGAACU	-4.38 ± 0.24	-2.02 ± 0.25
CUACAGCAAUAUUACGACGA	-2.65 ± 0.15	-2.02 ± 0.18
CUACAGCAAUAUUACGAGGC		-1.35 ± 0.3
CUACAGCAAUAUUACGAGUG	-0.714 ± 0.047	-0.418 ± 0.068
CUACAGCAAUAUUACGAUCA	-1.82 ± 0.17	-1.49 ± 0.2
CUACAGCAAUAUUACGAUUU	-4.36 ± 0.22	-1.95 ± 0.14
CUACAGCAAUAUUACGCCGG	-2.19 ± 0.13	-1.26 ± 0.13
CUACAGCAAUAUUACGCGUC	-3.92 ± 0.26	-2.77 ± 0.24
CUACAGCAAUAUUACGCGUG	-1.83 ± 0.076	-1.03 ± 0.089
CUACAGCAAUAUUACGCUAC	-3.78 ± 0.22	-2.25 ± 0.24
CUACAGCAAUAUUACGCUAU	-4.01 ± 0.19	-2.6 ± 0.18
CUACAGCAAUAUUACGCUUU	-3.79 ± 0.25	-2.38 ± 0.16
CUACAGCAAUAUUACGGAAC	-4.6 ± 0.34	-3.47 ± 0.35
CUACAGCAAUAUUACGGACG	-0.196 ± 0.072	0.601 ± 0.1
CUACAGCAAUAUUACGGACU	-1.76 ± 0.17	-1.75 ± 0.19
CUACAGCAAUAUUACGGCAU	-3.6 ± 0.23	-2.34 ± 0.23
CUACAGCAAUAUUACGGCUU	-2.38 ± 0.15	
